Data from patent US20170246212A1, “METHODS TO UPREGULATE AND SUPPRESS AN EXPRESSION OF IMMUNOMODULATORY CELLS” (National Health Research Institutes, priority 2014, published 2017).

B1: rhIL-25: Human recombinant IL-25 (PeproTech); IL-25 also known as IL17E (protein, UniProt Q9H293 33-177, looked up)
Interleukin-25: YSHWPSCCPSKGQDTSEELLRWSTVPVPPLEPARPNRHPESCRASEDGPLNSRAISPWRYELDRDLNRLPQDLYHARCLCPHCVSLQTGSHMDPRGNSELLYHNQTVFYRRPCHGEKGTHKGYCLERRLYRVSLACVCVRPRVMG

Tests used:
[1] = tested on: PD-L1 surface expression on monocytes; test: PD-L1 surface expression on human monocytes from PBLs, flow cytometry; assay type: cell-based; settings: for IL-25-mediated induction of PD-L1 in human primary monocytes: inhibitor pretreatment (WP1066 2.5 μM; SP600125 25 μM; PD98059 20 μM; LY294002 10 μM; Akt inhibitor III 10 μM), then 100 ng/ml rhIL-25 for 18 hours
Method: FIG. 9. IL-25-mediated PD-L1 expression in human monocytes and hMSCs is mediated through JNK and STAT3 with STAT3 involved in transcriptional control of PD-L1. (A) Human PBLs were pretreated with inhibitors of STAT3 (WP1066; 2.5 μM), JNK (SP600125; 25 μM), or MEK1 (PD98059; 20 μM) prior to 100 ng/ml rhIL-25 for 18 hours, with subsequent flow cytometric analysis for PD-L1 surface expression on monocytes, gated using FSC and SSC. Filled histograms represent isotype control. Unfilled histograms represent PD-L1 antibody staining. Pooled data (3 donors) provided in (B) with bars representing MFI. hMSCs were treated with inhibitors of (C) STAT3 (WP1066; 2.5 μM) and (D) JNK (SP600125; 25 μM) for 6 hours, and subsequently assessed by flow cytometric analysis for PD-L1 surface expression. Pooled data (all 3 donors) for each respective inhibitor provided (left charts) with bars representing MFI. (D) Putative GAS elements (STAT-binding sites) in the proximal promoter region of human PD-L1 gene; 700 bp region upstream from the transcription start site), as determined with TFSearch web-based software. (E) Binding of STAT3 or IgG (negative control) in hMSCs was analyzed by chromatin immunoprecipitation (ChIP) with promoter-specific primers for region 1 and region 2. The input samples (positive control) represent 1% starting chromatin. (F) Schematic of model of hMSC-mediated suppression of Th17 responses involving IL-25/STAT3/PD-L1 axis.
FIG. 10. Involvement of signal pathways for IL-25-induced expression of PD-L1 in human peripheral blood monocytes. (A) Pooled data (3 donors) of PD-L1 expression (shown as MFI) after MEK inhibition. (B) Human peripheral blood monocytes were pretreated with inhibitors of PI3K (LY294002; 10 μM) or Akt (Akt inhibitor III; 10 μM), followed by 100 ng/ml IL-25 stimulation. After IL-25 treatment for 18 hours, the expression of PD-L1 was assessed by cell surface staining. Pooled data (3 donors) provided in (C) of PD-L1 expression (shown as MFI). A.U., arbitrary units. […]

[2] = tested on: PD-L1 surface expression on hMSCs; test: PD-L1 surface expression on hMSCs, flow cytometry; assay type: cell-based, human
Method: FIG. 7. IL-25 induces PD-L1 surface expression on hMSCs and human monocytes. (A) PD-L1 in siCtrl MSCs (left panel) and siPD-L1 MSCs (right panel) was analyzed by surface staining. (B) Freshly isolated human PBLs were co-cultured without (left panels) or with siCtrl MSCs (middle panels) or siPD-L1 MSCs (right panels) for 3 days, followed by PMA/ionomycin stimulation for 6 hours. IL-17A production in CD3^+ T cells was assessed by intracellular staining. Representative data shown with numbers in the top right quadrants representing the percentages of IL-17A-producing CD3^+ T cells. Pooled data from PBLs (n=4) and 2 hMSC donors (donors A & B) are provided in (C). Folds of reversed phenotypes of silL-25 and siPD-L1 are provided in (D). (E) PD-L1 expression on siCtrl hMSCs (left panel) and silL-25 hMSCs (right panel) was assessed by cell surface staining Filled histograms represent isotype control. […] Pooled data provided in (F) of PD-L1 expression (indicated by fold-change in mean fluorescence intensity; MFI) on silL-25-hMSCs and siPD-L1-hMSCs (all 3 donors). […] (G) hMSCs were treated with indicated doses of rhIL-25 for 18 hours and assessed for cell surface PD-L1 expression by cell surface staining. […] (H) Human PBLs were treated with indicated doses of rhIL-25 for 18 hours, and assessed for cell surface PD-L1 expression on monocytes, gated using FSC and SSC, by flow cytometric analysis. […]

[3] = tested on: IL-17A production in CD3+ T cells; test: IL-17A production in CD4 T cells treated with rhIL-25, intracellular staining; assay type: cell-based, human; settings: rhIL-25 alone for 18 hours, then PMA/ionomycin 6 hours
Method: FIG. 6. […] (A) Human CD4 T cells were treated with indicated doses of recombinant human IL-25 (rhIL-25) for 18 hours, followed by PMA/ionomycin stimulation for 6 hours. IL-17A production in CD3^+ T cells was assessed by intracellular staining. Numbers in the top right quadrants represent the percentages of IL-17A-producing CD3^+ T cells; (B) pooled data of 5 PBL donors. (C) Human CD4 T cells (n=4) were co-cultured without or with hMSCs (2 donors: B & C) in the absence or presence of transwell barriers. Pooled data from healthy donors are provided in (D). Data are shown as means±SD. **, p<0.01; n.s., not significant. […]
Cells were stained with antibodies as indicated: anti-human IL-25-PE (R&D Systems), mouse IgG1 isotype control-PE (R&D Systems), anti-human CD3-PE/Cy5 (BioLegend), anti-human CD4-PE (BioLegend), anti-human IL-17A-PE (eBioscience), anti-human IFN-γ-FITC (BioLegend), anti-human IL-22-PE (eBioscience), anti-human FOXP3-Alexa Fluor 488 (BD Pharmingen), anti-human CD274 […]-PE (eBioscience), mouse IgG1 isotype control-PE (eBioscience), anti-human IL-25R-PE (R&D Systems), and mouse IgG2b isotype control-PE (R&D Systems), anti-mouse CD4-APC (eBioscience), anti-mouse CD3e-PE/Cy5 (eBioscience), and anti-mouse/rat IL-17A-PE (eBioscience). Data was collected on BD FACSCalibur™ (BD Biosciences) instruments and analyzed with Cell Quest Pro software (BD Biosciences).

[4] = tested on: myeloid-derived suppressor cells (MDSCs) in peripheral blood leukocytes; test: Expansion of CD14-CD11b+CD33+ MDSCs from human PBLs by IL-25; assay type: cell-based; settings: allogeneic PBL (2 donors), various doses of IL-25
Method: FIG. 11. IL-25 expands […] myeloid-derived suppressor cells (MDSCs) in peripheral blood leukocytes (PBLs). Expansion of CD14^−CD11b^+CD33^+ cells from human PBLs by recombinant human IL-25. Allogeneic PBL (2 donors) were cultured alone or with addition of various doses of IL-25 as indicated. PBL were first gated on forward scatter (FSC)/side scatter (SSC) (R1) then analyzed for CD14^− and CD11b^+ (R2), and further analyzed for CD33^+ (R3, cell percentages denoted).
To further confirm that IL-25 can induce expansion of MDSCs from peripheral blood, Allogeneic PBL (2 donors) were cultured alone or with addition of various doses of IL-25 as indicated (FIG. 11). The treated cells were first gated on forward scatter (FSC)/side scatter (SSC) (R1) then analyzed for CD14^− and CD11b^+ (R2), and further analyzed for CD33^+ (R3, cell percentages denoted).

| Molecule | IL-25-mediated induction of PD-L1 in human primary monocytes [1] | PD-L1 expression in hMSCs ([2]; inhibitor for 6 hours (WP1066 2.5 μM; SP600125 25 μM)) | PD-L1 expression in monocytes ([1]; human PBLs treated with rhIL-25, indicated doses, 18 hours, dose-dependent) | surface expression of PD-L1 on hMSCs ([2]; exogenous rhIL-25, indicated doses, 18 hours) | suppression of Th17 responses (IL-17A in CD4 T cells) [3] | expansion of MDSCs in PBLs [4] |
| --- | --- | --- | --- | --- | --- | --- |
| COc1cccc(-c2cc(=O)c3ccccc3o2)c1N [PD98059] | minimal effect |  |  |  |  |  |
| C[C@H](NC(=O)/C(C#N)=C/c1cccc(Br)n1)c1ccccc1 [WP1066, reference compound] | substantially abolished | strongly reduced |  |  |  |  |
| B1 |  |  | dramatically and significantly increased | further upregulate surface expression of PD-L1 on hMSCs but not to a significant extent | failed to suppress Th17 responses to a significant extent | expands |
